{"source": "patent US20220218614A1", "about": "“IONIZABLE CATIONIC LIPIDS AND LIPID NANOPARTICLES, AND METHODS OF SYNTHESIS AND USE THEREOF” (Tidal Therapeutics, Inc., priority 2020, published 2022)", "molecules": {"B1": {"name": "mutOKT8: non-functional mutated OKT8 Fab, SEQ ID NO: 22 and 23 (antibody)", "heavy": "QVQLVQSGAEDKKPGASVKVSCKASGFNIKDTYIHWVRQAPGQGLEWMGRIDPANDNTLYASKFQGRVTITADTSSNTAYMELSSLRSEDTAVYYCGRGAGAYVFDHWGQGTTVTVSSASTKGPSVFPLAPSSKSTSGGTAALGCLVKDYFPEPVTVSWNSGALTSGVHTFPAVLQSSGLYSLSSVVTVPSSSLGTQTYICNVNHKPSNTKVDKKVEPKSSDKTHTC", "light": "DIVMTQSPSSLSASVGDRVTITCRTSRSISAALAWYQEKPGKAPKLLIYSGSTLQSGVPSRFSGSGSGTDFTLTISSLQPEDFATYYCQQHNENPLTFGQGTKVEIKRTVAAPSVFIFPPSDEQLKSGTASVVCLLNNFYPREAKVQWKVDNALQSGNSQESVTEQDSKDSTYSLSSTLTLSKADYEKHKVYACEVTHQGLSSPVTKSFNRGES"}}, "type_in_all_cases": "cell-based", "key": {"human whole blood": {"tested_on": "human whole blood", "assay": "Whole blood transfection of immune cells with Fab targeted mRNA LNPs", "settings": "Lipid 8 LNP, 2.5 μg/mL mCherry mRNA, 24 hours", "description": "Venous blood from healthy volunteers was anti-coagulated in heparin tubes (BD Biosciences #367526) and seeded at 50 μL in a 96-well round-bottom plate. Transfection of whole blood was carried out simply by adding nanoparticles containing 5 μg/mL mRNA to the cells and co-culturing at 37° C. until the time of analysis. To assess transfection efficiency, cells were analyzed 24-hours post-transfection by flow cytometry. LNPs used (with and without post-inserted targets) at 2.5 μg/mL:RDM073.23. Cells obtained from human blood were analyzed by flow cytometry. Prior to the analysis of whole blood transfection efficiency, red blood cells were lysed twice with VersaLyse Lysing Solution (Beckman Coulter #A09777) for 10 minutes at room temperature. […]\nCompensation for each fluorochrome was performed in the multicolor flow panels using positive and negative compensation beads. Fluorescence minus one (FMO) samples and unstained controls were included to determine the level of background fluorescence and to set the gates for the negative cell populations versus the positive cell populations.\nAll samples were acquired on a BD LSRFortessa X-20 (BD Biosciences) running […] software (Becton Dickinson). All data collected were analyzed using FlowJo 10.7.1 software and GraphPad Prism version 9.0. […]"}, "primary human NK cells": {"tested_on": "primary human NK cells", "assay": "LNP transfection of co-cultured human T cells and NK cells: NK cells", "settings": "Lipid 8 LNP, 2.5 ug/mL mRNA, 24 hours", "description": "CD3-depleted PBMCs were purified using magnetic-based CD3 positive selection and retaining of the negative fraction. 20 million CD3 depleted PBMCs were added to 1 well of a 6 well GREX plate in media containing 10 ng/mL IL-15 for 7 days. On day 7, each well was split in 2 and cells were cultured further in media containing 10 ng/mL IL-15 for an additional 7 days. On day 14, NK cells were concentrated to 1 million cells/mL in preparation for co-transfection with primary human T cells.\nLNPs were prepared using the mixing process described in Example 6, the buffer exchange process described in Example 25. The LNPs were formulated using eGFP encoding mRNA (TriLink Biotechnologies, California, US), Lipid 8 as the ionizable lipid, and labeled with 0.01 mol % DiIC18(5)-DS (Invitrogen, Massachusetts, US). Fab-lipid conjugates generated from methods described in Example 4 while generation of Nb-conjugated differed in using 1:1:4 Nb:DSPE-SKPEG-maileimide:DSPE-2KPEG-OCH3 and a 50 kD UF membrane (Millipore Corp, Billerica, Mass. USA) for separation of Nb-conjugate from free Nb. Using methods similar to Example 12, conjugated Fabs and conjugated Nb were post-inserted at various densities (Table 41) into LNPs containing Lipid 8 and GFP mRNA with DiI dye. […]. […]\n(§1) 24 hours after LNP transfection, cell culture media was aspirated from T cell and NK cell co-cultures after centrifugation. […] Following acquisition by flow cytometry, T cells and NK cells were analyzed independently using FlowJo (flow cytometry analysis software). In either CD3+ cells (T cells) or CD56+ cells (NK cells), the frequency of GFP positive events relative to GFP negative events was calculated (FIG. 64A). Additionally, the overall fluorescence of GFP was quantified by assessment of mean fluorescence intensity (MFI, FIG. 64B). […] Together, these metrics enabled quantification of LNP transfection efficiency of all targeted LNPs tested in primary human T cell and NK cell co-cultures."}, "primary human T cells": {"tested_on": "primary human T cells", "assay": "LNP transfection of co-cultured human T cells and NK cells: T cells", "settings": "Lipid 8 LNP, 2.5 ug/mL mRNA, 24 hours", "description": "Primary human T cells were purified using magnetic-based CD3 negative selection. 20 million purified T cells were activated using anti-CD3/anti-CD28 coated beads for 48 hours in media containing 100 IU/mL IL-2. Following activation, activation beads were removed, and T cells were expanded for an additional 48 hours in media containing 100 IU/mL IL-2. After the expansion period, T cells were concentrated to 1 million cells/mL in preparation for co-transfection with primary human NK cells.\nLNPs were prepared using the mixing process described in Example 6, the buffer exchange process described in Example 25. […]\nas §1"}}, "data": [{"molecule": "B1", "values": [{"measurement": "% mCherry+ cells (transfection) in whole blood, in words", "setting": "human whole blood", "value": "did not exhibit transfection of any of the immune cell types"}, {"measurement": "transfection of NK cells in T/NK co-culture (% GFP, GFP MFI, DiI), in words", "setting": "primary human NK cells", "value": "high % DiI and % GFP"}, {"measurement": "transfection of T cells in T/NK co-culture (% GFP, GFP MFI, DiI), in words", "setting": "primary human T cells", "value": "high % DiI and % GFP"}]}]}
